Experimental data from patent US20240158512A1 (TRUEBINDING, published 2024).
Several values for one entry are separate records, joined by “and”; a condition that tells them apart may be missing. Equal entries are not always repeated.

Molecular target: T1, Galectin-3 (UniProt P17931 1-250, limits assumed)
T1 construct: Target of the anti-Gal3 antibody TB006; also called Gal3; GAL3
Experiment: ELISA blocking assay; TB006 diluted to 0.31 mg/mL in 0.9% NaCl, 25 C, 4 h; blocked partner not named

T1 sequence (P17931 whole entry): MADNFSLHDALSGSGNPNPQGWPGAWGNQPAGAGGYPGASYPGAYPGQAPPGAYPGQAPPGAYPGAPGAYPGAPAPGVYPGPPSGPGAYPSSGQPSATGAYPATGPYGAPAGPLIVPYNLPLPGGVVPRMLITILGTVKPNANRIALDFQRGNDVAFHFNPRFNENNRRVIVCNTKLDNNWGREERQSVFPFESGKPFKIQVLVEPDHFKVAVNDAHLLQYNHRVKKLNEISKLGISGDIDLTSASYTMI

IC50: 1.35 µg/mL and 1.41 µg/mL
B1: TB006 (antibody, human IgG4 S228P, kappa, V domains shown)
VH: QVQLVQSGAEVKKPGASVKVSCKASGYSFTNYYMHWVRQAPGQRLEWMGWIYPGSGNTNYNEKFQGRVTITADTSASTAYMELSSLRSEDTAVYYCSTAPGGFDVWGQGTTVTVSS
VL: DIVMTQTPLSLSVTPGQPASISCKSSKSLLHSDGITYLYWYLQKPGQSPQLLIYRMSNLASGVPDRFSGSGSGTDFTLKISRVEAEDVGVYYCAQMLEFPLTFGQGTKLEIKR
notes: Tested as formulated drug substance or drug product in 20 mM L-histidine, 5 mM methionine, 100 mM NaCl, 0.02% polysorbate 80, pH 5.8, or diluted in 0.9% saline; also called 4A11.H3L1; IMT006a
